Legend:
[1] = target: T1, CRH-R1 (Mus musculus, UniProt P35347); assay: Microarray transcriptional response to CRH in AtT-20 cells (Murine Genome U74Av2 arrays); assay type: cell-based
T1 construct: host or cells: AtT-20 (murine pituitary corticotroph adenoma cells)
T1 sequence (P35347 24-415): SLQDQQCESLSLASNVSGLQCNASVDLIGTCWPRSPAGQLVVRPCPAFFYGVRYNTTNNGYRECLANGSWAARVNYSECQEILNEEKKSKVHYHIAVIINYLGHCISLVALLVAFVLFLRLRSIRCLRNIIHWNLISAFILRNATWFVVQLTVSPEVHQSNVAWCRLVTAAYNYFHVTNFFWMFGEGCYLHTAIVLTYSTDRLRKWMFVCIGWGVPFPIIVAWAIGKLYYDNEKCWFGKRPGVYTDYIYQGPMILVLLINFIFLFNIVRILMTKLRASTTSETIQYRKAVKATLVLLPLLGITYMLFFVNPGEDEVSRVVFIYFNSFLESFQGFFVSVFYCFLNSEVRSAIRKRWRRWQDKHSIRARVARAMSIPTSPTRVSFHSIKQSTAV
Protocol: (§1) Cell culture and sample preparation—AtT-20 cells were purchased from ATCC and were maintained at 37° C. in 5% CO2 in humidified air in Dulbecco's modified Eagle's medium (Invitrogen Life Technologies) containing 10% fetal bovine serum, 50% horse serum and 4.5 g/L D-glucose. For experiments cells were seeded in 25 cm^2 flasks. The medium was replaced 48 h later and cells were treated with either 0.1% DMSO, 1 μM CRH (Sigma) in DMSO, 1 μM R121919 in DMSO or 1 μM CRH+1 μM R121919 in DMSO for 0, 0.5, 1, 2, 4, 8 and 24 h in fresh medium. The incubation was stopped by aspirating the incubation medium and adding 3 ml Trizol (Invitrogen Life Technologies) for lysis of the cells. Total RNA was extracted using Trizol according to the instructions of the manufacturer. 100 μg total RNA was further purificied using Rneasy kit (Qiagen) with DNAseI treatment on column.
Microarray hybridization—cRNA was prepared as follows. Reverse transcription was performed on 10 μg of total RNA for 1 h at 42° C. using a T7-oligo(dT)24-primer and SuperscriptII RT (Invitrogen Life Technologies). Second strand cDNA synthesis was done for 2 h at 16° C. using Escherichia coli DNA Polymerase I, DNA ligase and RNAseH (Invitrogen Life Technologies). After phenol-chloroform extraction using phase-lock gel (Eppendorf) in vitro transcription was performed for 6 h at 37° C. using the Bioarray high-yield RNA transcript labeling kit with Biotin labeled ribonucleotides (Enzo Diagnostics). cRNA samples were purified on Qiagen Rneasy columns followed by fragmentation for 35 min at 95° C. cRNA yields were between 50 and 100 μg. Samples were processed on GeneChips (Affymetrix, Santa Clara, Calif.). In order to check the quality of each sample, 5 μg of labeled cRNA was run on Test2-arrays. Actual experiments were performed on Murine Genome U74Av2 arrays, containing probe sets interrogating approximately 12,000 full-length mouse genes and EST clusters from the UniGene database (Build 74). Hybridization was performed using 15 μg CRNA for 16 h at 45° C. under continuous rotation. Arrays were stained in Affymetrix Fluidics stations using Streptavidin/Phycoerythrin (SAPE) followed by staining with anti-streptavidin antibody and a second SAPE staining. Subsequently arrays were scanned with a HP-Laserscanner and data were analyzed with the Microarray Suite Software (Affymetrix). No scaling or normalization was performed at this stage. Quality of the experiment was assessed based on the percentages present calls across all samples which was on average 47.06±2.45%. The cytoplasmic β-actin and GAPDH 5′/3′ ratios were 1.10±0.08 and 0.93±0.05 respectively.
Basically this alignment sets the average intensity of one array to the average measured across all arrays, compensating for array to array variations in hybridization, washing and staining, ultimately allowing a reasonable comparison between arrays. After alignment polished data were analyzed using weighted spectral mapping. Weighted spectral mapping is an unsupervised multivariate analysis method which includes double-centering of the data combined with a specialized visualization representing the two highest principle components. Even though double-centering removes the “size” component of the array data, this information is reintroduced in the visualization via the area of the symbols representing the size of the respective samples and genes. This method allows the reduction of a large microarray dataset and provides means to visually inspect and thereby identify clusters of genes and/or subjects in the data (7). A more detailed analysis was carried out using the OmniViz program. All records which were absent in all experiments were removed and all signals less than 20 were set to 20. Gene expression fold differences for CRH, R121919 and CRH+R121919 treatments were calculated at each timepoint. For those calculations signals at corresponding timepoints in DMSO treated samples were used to calculate ratios. […]

[2] = target: T1, CRH-R1; assay: c-fos mRNA levels by quantitative RT-PCR in AtT-20 cells; assay type: cell-based, murine
Protocol: as §1, with “100 μg total RNA was further purificied using Rneasy kit (Qiagen) with DNAseI treatment on column.” left out
Quantitative RT-PCR—Microarray data were confirmed using real time PCR analysis. […] Quantitative PCR was performed on a ABIPrism 7700 cycler (Applied Biosystems) using a Taqman PCR kit. […] A linear regression line calculated from the standard curves allowed the determination of transcript levels in RNA samples from the different time points.
Transcriptional response to CRH was studied in the CRH-R1-expressing murine AtT-pituitary corticotroph-derived adenoma cell line. Whereas CRH-R1 was readily detectable both by real time quantitative RT-PCR (RTq) and western blot, CRH-R2 expression could not be discerned in AtT-20 cells. […]

[3] = test system: CRF1 mRNA; assay: CRF1 mRNA in AtT-20 cells exposed to CRF; assay type: cell-based, murine; settings: AtT-20 cells exposed to 1 μM CRF
Protocol: as §1
Quantitative RT-PCR—Microarray data were confirmed using real time PCR analysis. First strand cDNA synthesis was performed on 0.5 μg total RNA using random hexamer primers and SuperscriptII RT (Invitrogen Life Technologies). Quantitative PCR was performed on a ABIPrism 7700 cycler (Applied Biosystems) using a Taqman PCR kit. […] A linear regression line calculated from the standard curves allowed the determination of transcript levels in RNA samples from the different time points.

[4] = target: corticotropin-releasing hormone receptor 1 (CRH-R1), endogenous on murine AtT-20 cells (murine) (UniProt P35347); assay: cell-based or functional assay

## CRH: Corticotropin releasing hormone, a 41-amino acid polypeptide (Sigma)
[1]; 1 μM CRH, 0.5 to 24 h
  number of regulated genes (greater than 2-fold change in transcript levels at any one time point, relative to DMSO, differing from antagonist treatment): 111 genes
[1]; 1 μM CRH, 1 to 2 hours
  number of intermediate responders (responding after 1 to 2 hours of treatment): 32 genes
[1]; 1 μM CRH, 30 minutes
  number of early responders (2-fold change after 30 minutes treatment): 26 genes
[1]; 1 μM CRH, 2 hours or more
  number of late responders (response after 2 hours or more): 53 genes
[1]; after exposure to CRH
  direction of regulation of all responder genes: up regulated
[2]; 1 μM CRH, levels already going down after 0.5 to 1 h
  c-fos transcription (c-fos mRNA levels by RTq): transient surge
[3]
  alterations in CRF1 mRNA: not detect any alterations

## CCCN(CCC)c1cc(C)nc2c(-c3cnc(N(C)C)cc3C)c(C)nn12 [R121919]
[1]; 1 μM CRH + 1 μM R121919
  suppression of CRH-induced transcriptional responses (microarray): suppressed
[2]; 1 μM CRH in the presence of 1 μM R121919
  suppression of CRH-elicited c-fos transcription: almost completely suppressed

## corticotropin-releasing hormone (CRH) (ligand)
[4]
  microarray gene expression in AtT-20 cells (greater than 2-fold change in transcript levels against DMSO): 111 genes

From patent US20090239765A1, “GENES WHOSE EXPRESSION IS INCREASED IN RESPONSE TO STIMULATION BY CORTICOTROPIN-RELEASING HORMONE” (priority 2003, published 2009)
